Experimental data: patent US20260275319A1 (MAX PLANCK GESELLSCHAFT ZUR F RDERUNG DER WISSENSCHAFTEN E V, published 2026)
One block for each binder: values may come before it.

How the values were obtained:
[1] = molecular target: T1, MtrF of M. mazei (subunit of the MtrA-MtrH complex), from whole cell extract (Methanosarcina mazei); assay: pulldown from M. mazei whole cell extract with HA-tagged Adriase, LC-MS/MS (Experiment 2.3)
T1 sequence (P80654 whole entry, looked up): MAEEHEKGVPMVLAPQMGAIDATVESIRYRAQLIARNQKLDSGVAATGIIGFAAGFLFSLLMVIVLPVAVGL

[2] = molecular target: T2, MtrH of M. mazei (subunit of the MtrA-MtrH complex), from whole cell extract (Methanosarcina mazei); assay: as above
T2 sequence (P80650 1-316, looked up): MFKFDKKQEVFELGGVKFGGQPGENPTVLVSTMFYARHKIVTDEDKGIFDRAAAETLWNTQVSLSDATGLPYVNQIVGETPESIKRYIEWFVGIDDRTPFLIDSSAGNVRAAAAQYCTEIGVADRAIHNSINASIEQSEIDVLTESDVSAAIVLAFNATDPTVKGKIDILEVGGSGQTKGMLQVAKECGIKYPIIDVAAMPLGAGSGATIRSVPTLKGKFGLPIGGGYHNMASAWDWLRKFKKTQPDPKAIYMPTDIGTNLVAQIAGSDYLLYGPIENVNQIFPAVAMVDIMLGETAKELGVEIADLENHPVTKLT

[3] = molecular target: T3, MtrG of M. mazei (subunit of the MtrA-MtrH complex), from whole cell extract (Methanosarcina mazei); assay: as above
T3 sequence (P80656 whole entry, looked up): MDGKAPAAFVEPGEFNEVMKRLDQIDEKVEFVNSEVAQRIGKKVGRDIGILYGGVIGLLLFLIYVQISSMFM

[4] = molecular target: T4, MtrB of M. mazei (subunit of the MtrA-MtrH complex), from whole cell extract (Methanosarcina mazei); assay: as above
T4 sequence (P80655 whole entry, looked up): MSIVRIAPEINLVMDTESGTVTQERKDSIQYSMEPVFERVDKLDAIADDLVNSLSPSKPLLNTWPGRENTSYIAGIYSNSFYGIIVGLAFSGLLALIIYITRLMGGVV

[5] = molecular target: T5, MtrE of M. mazei (subunit of the MtrA-MtrH complex), from whole cell extract (Methanosarcina mazei); assay: as above
T5 sequence (P80651 whole entry, looked up): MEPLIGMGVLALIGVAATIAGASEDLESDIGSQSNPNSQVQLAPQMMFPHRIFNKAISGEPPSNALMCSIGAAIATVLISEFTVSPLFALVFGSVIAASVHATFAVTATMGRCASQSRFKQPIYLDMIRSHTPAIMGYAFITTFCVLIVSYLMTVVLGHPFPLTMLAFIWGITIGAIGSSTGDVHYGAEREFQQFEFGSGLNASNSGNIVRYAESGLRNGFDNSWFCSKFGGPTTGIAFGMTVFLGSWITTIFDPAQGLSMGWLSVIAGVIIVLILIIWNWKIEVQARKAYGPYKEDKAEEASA

[6] = molecular target: T2, MtrH of M. mazei (subunit of the …); assay: pulldown from M. mazei whole cell extract with Myc-tagged Adriase, LC-MS/MS (Experiment 2.2)
[7] = molecular target: T3, MtrG of M. mazei (subunit of the …); assay: as above
[8] = molecular target: T4, MtrB of M. mazei (subunit of the …); assay: as above
[9] = molecular target: T5, MtrE of M. mazei (subunit of the …); assay: as above

Intensity (mass spectrometry) [1]: 430000 arbitrary units
Intensity (mass spectrometry) [2]: 2e+08 arbitrary units
Intensity (mass spectrometry) [3]: 1.5e+07 arbitrary units
Intensity (mass spectrometry) [4]: 6.2e+06 arbitrary units
Intensity (mass spectrometry) [5]: 3.8e+06 arbitrary units
B1: M. mazei Adriase with C-terminal HA-tag (enzyme)
chain: TLVIAFIGKNGAVMAGDMREITFEGEKPDREKLEKELYSGSIVTDEEMQKKAEEFGVKITVADCKEKVSERNGVLVGEVSSAEGGVVKKRRLYASAGNFAIAELINTEMTLTSQGKGSNFIAFGNEFTKQVANKCFKDNWTKKSNLQDAVKILILCMETVARKTASVSKQFMIVQTASNADVLKVVEKDRNCGSYPYDVPDYA
notes: also called MM_2909

Intensity (mass spectrometry) [6]: 6.5e+07 arbitrary units
Intensity (mass spectrometry) [7]: 1.2e+06 arbitrary units
Intensity (mass spectrometry) [8]: 3.2e+06 arbitrary units
Intensity (mass spectrometry) [9]: 2.2e+06 arbitrary units
B2: M. mazei Adriase with C-terminal Myc-tag (enzyme)
chain: TLVIAFIGKNGAVMAGDMREITFEGEKPDREKLEKELYSGSIVTDEEMQKKAEEFGVKITVADCKEKVSERNGVLVGEVSSAEGGVVKKRRLYASAGNFAIAELINTEMTLTSQGKGSNFIAFGNEFTKQVANKCFKDNWTKKSNLQDAVKILILCMETVARKTASVSKQFMIVQTASNADVLKVVEKDRNCGSEQKLISEEDL
notes: also called MM_2909
